B1: 5115-H1-M1-Fc (Fc fusion)
chain: EVQLVESGGGLVQPGGSLRLSCAASGRTFSSFVMSWFRQAPGKEREFVSAISGSGSRSRYADSVKGRFTISRDNSKNTLYLQMNSLRAEDTAVYYCAANPRRATPDYTQYAYWGQGTLVTVSS
notes: VHH-Fc; Fc not specified; not shown: Fc
B2: 5115-H1-M2-Fc (Fc fusion)
chain: EVQLVESGGGLVQPGGSLRLSCAASGRTFSSFVMSWFRQAPGKEREFVSAISGSGSRARYADSVKGRFTISRDNSKNTLYLQMNSLRAEDTAVYYCAANPRRATPDLLQYAYWGQGTLVTVSS
notes: as for B1
B3: 5115-H1-M4-Fc (Fc fusion)
chain: EVQLVESGGGLVQPGGSLRLSCAASGRFFSSFVMSWFRQAPGKEREFVSAISGSGSRFRYADSVKGRFTISRDNSKNTLYLQMNSLRAEDTAVYYCAANPRRATPDYTQYAYWGQGTLVTVSS
notes: as for B1
B4: 5115-H1-M5-Fc (Fc fusion)
chain: EVQLVESGGGLVQPGGSLRLSCAASGRYFSSFVMAWFRQAPGKGLEFVSAISGSGLRARYADSVKGRFTISRDNSKNTLYLQMNSLRAEDTAVYYCAANPRRATPDLTSYAYWGQGTLVTVSS
notes: as for B1
B5: 5115-H1-M6-Fc (Fc fusion)
chain: EVQLVESGGGLVQPGGSLRLSCAASGREFSSFVMAWFRQAPGKGLEFVSAISGSGSRARYADSVKGRFTISRDNSKNTLYLQMNSLRAEDTAVYYCAANPRRATPDLTSYAYWGQGTLVTVSS
notes: as for B1
B6: 5115-H1-M7-Fc (Fc fusion)
chain: EVQLVESGGGLVQPGGSLRLSCAASGRTFSSFVMSWFRQAPGKEREFVSAISGRGSRAYYADSVKGRFTISRDNSKNTLYLQMNSLRAEDTAVYYCAANPRRATPDLRQYAYWGQGTLVTVSS
notes: as for B1
B7: 5115-H1-M8-Fc (Fc fusion)
chain: EVQLVESGGGLVQPGGSLRLSCAASGRTFSSFVMSWFRQAPGKEREFVSAISGSGSRQRYADSVKGRFTISRDNSKNTLYLQMNSLRAEDTAVYYCAANPRRATPDLSQYAYWGQGTLVTVSS
notes: as for B1
B8: 5115-H1-M9-Fc (Fc fusion)
chain: EVQLVESGGGLVQPGGSLRLSCAASGRTFSSFVMSWFRQAPGKEREFVSAISGSGSRLRYADSVKGRFTISRDNSKNTLYLQMNSLRAEDTAVYYCAANPRRATPDLLQYAYWGQGTLVTVSS
notes: as for B1
B9: 5115-H1-M11-Fc (Fc fusion)
chain: EVQLVESGGGLVQPGGSLRLSCAASGIRFSSFVMSWFRQAPGKEREFVSAISGSGSRHRYADSVKGRFTISRDNSKNTLYLQMNSLRAEDTAVYYCAANPRRATPDYTQYAYWGQGTLVTVSS
notes: as for B1
B10: 5115-H1-M12-Fc (Fc fusion)
chain: EVQLVESGGGLVQPGGSLRLSCAASGRTFSSFVMSWFRQAPGKEREFVSAISGSGSRARYADSVKGRFTISRDNSKNTLYLQMNSLRAEDTAVYYCAANPRRATPDLRQYAYWGQGTLVTVSS
notes: as for B1
B11: 5115-H1-M13-Fc (Fc fusion)
chain: EVQLVESGGGLVQPGGSLRLSCAASLGTFSSFVMSWFRQAPGKEREFVSAISGSGSRARYADSVKGRFTISRDNSKNTLYLQMNSLRAEDTAVYYCAANPRRATPDYTQYAYWGQGTLVTVSS
notes: as for B1
B12: 5115-H1-M14-Fc (Fc fusion)
chain: EVQLVESGGGLVQPGGSLRLSCAASGRTFSSFVMSWFRQAPGKEREFVSAISGSGSRMRYADSVKGRFTISRDNSKNTLYLQMNSLRAEDTAVYYCAANPRRATPDLTQYAYWGQGTLVTVSS
notes: as for B1
B13: 5115-H1-M15-Fc (Fc fusion)
chain: EVQLVESGGGLVQPGGSLRLSCAASGRTFSSFVMSWFRQAPGKEREFVSAISGSGSRMRYADSVKGRFTISRDNSKNTLYLQMNSLRAEDTAVYYCAANPRRATPDLRQYAYWGQGTLVTVSS
notes: as for B1
B14: 5115-H1-M16-Fc (Fc fusion)
chain: EVQLVESGGGLVQPGGSLRLSCAASHRTFSSFVMSWFRQAPGKEREFVSAISGSGSRARYADSVKGRFTISRDNSKNTLYLQMNSLRAEDTAVYYCAANPRRATPDLTQYAYWGQGTLVTVSS
notes: as for B1
B15: 5115-H1-M18-Fc (Fc fusion)
chain: EVQLVESGGGLVQPGGSLRLSCAASGRRFSSFVMSWFRQAPGKEREFVSAISGSGSRARYADSVKGRFTISRDNSKNTLYLQMNSLRAEDTAVYYCAANPRRATPDLTQYAYWGQGTLVTVSS
notes: as for B1
B16: 5115-H1-M19-Fc (Fc fusion)
chain: EVQLVESGGGLVQPGGSLRLSCAASGRTFSSFVMSWFRQAPGKEREFVSAISGSGSRMRYADSVKGRFTISRDNSKNTLYLQMNSLRAEDTAVYYCAANPRRATPDLHQYAYWGQGTLVTVSS
notes: as for B1
B17: 5115-H1-M20-Fc (Fc fusion)
chain: EVQLVESGGGLVQPGGSLRLSCAASGRTFRSFVMSWFRQAPGKEREFVSAISGSGSRYRYADSVKGRFTISRDNSKNTLYLQMNSLRAEDTAVYYCAANPRRATPDYTQYAYWGQGTLVTVSS
notes: as for B1
B18: 5115-H1-M21-Fc (Fc fusion)
chain: EVQLVESGGGLVQPGGSLRLSCAASGKTFSSFVMSWFRQAPGKEREFVSAISGSGSRTRYADSVKGRFTISRDNSKNTLYLQMNSLRAEDTAVYYCAANPRRATPDYTQYAYWGQGTLVTVSS
notes: as for B1
B19: 5115-H1-M22-Fc (Fc fusion)
chain: EVQLVESGGGLVQPGGSLRLSCAASGRTFSSFVMSWFRQAPGKEREFVSAISGSGSRSRYADSVKGRFTISRDNSKNTLYLQMNSLRAEDTAVYYCAANPRRATPDLLQYAYWGQGTLVTVSS
notes: as for B1
B20: 5115-H1-M23-Fc (Fc fusion)
chain: EVQLVESGGGLVQPGGSLRLSCAASGRTFKSFVMSWFRQAPGKEREFVSAISGSGSRARYADSVKGRFTISRDNSKNTLYLQMNSLRAEDTAVYYCAANPRRATPDMTQYAYWGQGTLVTVSS
notes: as for B1
B21: 5115-H1-M24-Fc (Fc fusion)
chain: EVQLVESGGGLVQPGGSLRLSCAASGRTFSGFVMAWFRQAPGKGLEFVSAISGTGSRARYADSVKGRFTISRDNSKNTLYLQMNSLRAEDTAVYYCAANPRRATPDLTQYAYWGQGTLVTVSS
notes: as for B1
B22: 5115-H1-M25-Fc (Fc fusion)
chain: EVQLVESGGGLVQPGGSLRLSCAASGRFFSSFVMSWFRQAPGKEREFVSAISGSGSRARYADSVKGRFTISRDNSKNTLYLQMNSLRAEDTAVYYCAANPRRATPDYSQYAYWGQGTLVTVSS
notes: as for B1
B23: 5115-H1-M26-Fc (Fc fusion)
chain: EVQLVESGGGLVQPGGSLRLSCAASGRTFSSFVMSWFRQAPGKEREFVSAISGSGSRYTYADSVKGRFTISRDNSKNTLYLQMNSLRAEDTAVYYCAANPRRATPDLMQYAYWGQGTLVTVSS
notes: as for B1
B24: 5115-H1-M27-Fc (Fc fusion)
chain: EVQLVESGGGLVQPGGSLRLSCAASGRTLSSFVMAWFRQAPGKGLEFVSAISGSGLRARYADSVKGRFTISRDNSKNTLYLQMNSLRAEDTAVYYCAANPRYATPDLTQYAYWGQGTLVTVSS
notes: as for B1
B25: 5115-H1-M28-Fc (Fc fusion)
chain: EVQLVESGGGLVQPGGSLRLSCAASGRTFSSFVMSWFRQAPGKEREFVSAISGSGSRYRYADSVKGRFTISRDNSKNTLYLQMNSLRAEDTAVYYCAANPRRATPDLKQYAYWGQGTLVTVSS
notes: as for B1
B26: 5115-H1-M29-Fc (Fc fusion)
chain: EVQLVESGGGLVQPGGSLRLSCAASGRTFSSFVMSWFRQAPGKEREFVSAISGSGSRAYYADSVKGRFTISRDNSKNTLYLQMNSLRAEDTAVYYCAANPRRATPDLRQYAYWGQGTLVTVSS
notes: as for B1
B27: 5115-H1-M30-Fc (Fc fusion)
chain: EVQLVESGGGLVQPGGSLRLSCAASGARFSSFVMSWFRQAPGKEREFVSAISGSGSRHRYADSVKGRFTISRDNSKNTLYLQMNSLRAEDTAVYYCAANPRRATPDYTQYAYWGQGTLVTVSS
notes: as for B1
B28: 5115-H1-M31-Fc (Fc fusion)
chain: EVQLVESGGGLVQPGGSLRLSCAASGRTFSSFVMSWFRQAPGKEREFVSAISGSGSRARYADSVKGRFTISRDNSKNTLYLQMNSLRAEDTAVYYCAANPRRATPDMRQYAYWGQGTLVTVSS
notes: as for B1
B29: 5115-H1-M32-Fc (Fc fusion)
chain: EVQLVESGGGLVQPGGSLRLSCAASGRARSSFVMSWFRQAPGKEREFVSAISGSGSRVRYADSVKGRFTISRDNSKNTLYLQMNSLRAEDTAVYYCAANPRRATPDYTQYAYWGQGTLVTVSS
notes: as for B1
B30: 5115-H1-M33-Fc (Fc fusion)
chain: EVQLVESGGGLVQPGGSLRLSCAASMPTFSSFVMSWFRQAPGKEREFVSAISGSGSRSRYADSVKGRFTISRDNSKNTLYLQMNSLRAEDTAVYYCAANPRRATPDYTQYAYWGQGTLVTVSS
notes: as for B1
B31: 5115-H1-M34-Fc (Fc fusion)
chain: EVQLVESGGGLVQPGGSLRLSCAASGRTFSSFVMSWFRQAPGKEREFVSAISGSGSRMRYADSVKGRFTISRDNSKNTLYLQMNSLRAEDTAVYYCAANPRRATPDMRQYAYWGQGTLVTVSS
notes: as for B1

Target: T1, recombinant human IGF-1R-his (human, UniProt P08069 31-932)
T1 construct: Recombinant his-tagged protein; also called hIGF-1R-his; hIGF1R-his; not shown: his tag
Experiment: ELISA, coated hIGF-1R-his
Description: The binding activity of the nanobody-Fc fusion proteins obtained after two rounds of mutant construction with the antigen proteins (recombinant human IGF-1R-His) was detected by an ELISA method: 2 μg/mL recombinant human IGF1R-His antigen proteins were added to a 96-well ELISA plate, at 30 μL/well, for coating overnight at 4° C. The plate was washed three times with PBST. PBS containing 5% skim milk powder was added for blocking at room temperature for 2 h. The plate was washed three times with PBST. The nanobody-Fc fusion proteins were serially diluted 3-fold, and the nanobody-Fc fusion proteins of different concentrations were added to each well at 30 μL/well and incubated at room temperature for 1 h. The plate was washed three times with PBST, and horseradish peroxidase-labeled anti-human Fc antibodies were added at 30 μL/well and incubated at room temperature for 50 min. The plate was washed three times with PBST. TMB substrate solution was added at 30 μL/well for color development in the dark for 1-5 min, 30 μL of 2 M hydrochloric acid was added to terminate the reaction, and the OD₄₅₀ was read using a microplate reader. Curve fitting was conducted and the EC₅₀ value was calculated using Graphpad Prism software.

T1 sequence (P08069 31-932 limits assumed): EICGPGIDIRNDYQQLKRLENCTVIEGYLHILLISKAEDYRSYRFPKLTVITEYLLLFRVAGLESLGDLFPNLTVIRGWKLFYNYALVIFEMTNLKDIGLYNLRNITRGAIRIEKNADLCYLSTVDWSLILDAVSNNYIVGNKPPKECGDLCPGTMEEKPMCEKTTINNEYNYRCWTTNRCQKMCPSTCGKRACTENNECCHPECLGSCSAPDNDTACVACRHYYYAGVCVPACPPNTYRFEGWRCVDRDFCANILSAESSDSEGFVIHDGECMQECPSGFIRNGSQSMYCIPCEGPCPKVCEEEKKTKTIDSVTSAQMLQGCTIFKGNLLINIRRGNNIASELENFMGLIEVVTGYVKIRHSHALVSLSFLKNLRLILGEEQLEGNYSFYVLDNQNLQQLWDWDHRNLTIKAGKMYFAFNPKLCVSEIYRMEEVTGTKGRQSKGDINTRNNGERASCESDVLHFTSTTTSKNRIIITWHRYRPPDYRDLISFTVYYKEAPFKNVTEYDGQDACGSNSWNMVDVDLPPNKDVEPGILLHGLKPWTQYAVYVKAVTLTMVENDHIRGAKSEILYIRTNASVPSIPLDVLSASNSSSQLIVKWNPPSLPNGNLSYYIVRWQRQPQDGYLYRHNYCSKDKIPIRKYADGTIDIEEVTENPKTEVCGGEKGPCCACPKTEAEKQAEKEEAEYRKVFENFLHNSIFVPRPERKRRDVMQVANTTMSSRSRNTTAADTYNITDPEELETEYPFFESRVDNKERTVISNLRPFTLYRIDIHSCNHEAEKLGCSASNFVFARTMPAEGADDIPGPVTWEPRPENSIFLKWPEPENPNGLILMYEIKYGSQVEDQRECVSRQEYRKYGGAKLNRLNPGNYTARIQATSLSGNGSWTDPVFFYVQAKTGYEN

Question: B1 was tested. Which EC50 did it give?
Answer: Its EC50 is 1.22 ng/mL.

Question: B2 was tested. Which EC50 did it give?
Answer: Its EC50 is 1.5 ng/mL.

Question: With B3 as the binder, how does the EC50 read?
Answer: The EC50 was 1.94 ng/mL.

Question: B4 was tested. Which EC50 did it give?
Answer: Its EC50 is 5.88 ng/mL.

Question: How did the EC50 turn out when B5 was run?
Answer: Its EC50 is 2.62 ng/mL.

Question: B6 was tested. Which EC50 did it give?
Answer: Its EC50 is 3.04 ng/mL.

Question: B7 was tested. Which EC50 did it give?
Answer: Its EC50 is 2 ng/mL.

Question: With B8 as the binder, how does the EC50 read?
Answer: Its EC50 is 2.3 ng/mL.

Question: With B9 as the binder, how does the EC50 read?
Answer: The EC50 was 2.51 ng/mL.

Question: Which EC50 does the source give for B10 here?
Answer: The EC50 was 1.41 ng/mL.

Question: For B11, which EC50 is on record?
Answer: Its EC50 is 2.9 ng/mL.

Question: With B12 as the binder, how does the EC50 read?
Answer: The EC50 was 4.31 ng/mL.

Question: For B13, which EC50 is on record?
Answer: The EC50 was 2.67 ng/mL.

Question: Which EC50 does the source give for B14 here?
Answer: Its EC50 is 3.61 ng/mL.

Question: How did the EC50 turn out when B15 was run?
Answer: Its EC50 is 2.89 ng/mL.

Question: With B16 as the binder, how does the EC50 read?
Answer: Its EC50 is 1.93 ng/mL.

Question: Which EC50 does the source give for B17 here?
Answer: The EC50 was 2.21 ng/mL.

Question: How did the EC50 turn out when B18 was run?
Answer: Its EC50 is 3.35 ng/mL.

Question: For B19, which EC50 is on record?
Answer: Its EC50 is 1.79 ng/mL.

Question: For B20, which EC50 is on record?
Answer: The EC50 was 1.74 ng/mL.

Question: B21 was tested. Which EC50 did it give?
Answer: Its EC50 is 1.83 ng/mL.

Question: Which EC50 does the source give for B22 here?
Answer: The EC50 was 1.33 ng/mL.

Question: How did the EC50 turn out when B23 was run?
Answer: The EC50 was 1.52 ng/mL.

Question: How did the EC50 turn out when B24 was run?
Answer: The EC50 was 1.79 ng/mL.

Question: With B25 as the binder, how does the EC50 read?
Answer: Its EC50 is 1.18 ng/mL.

Question: For B26, which EC50 is on record?
Answer: The EC50 was 1.62 ng/mL.

Question: For B27, which EC50 is on record?
Answer: The EC50 was 2.45 ng/mL.

Question: Which EC50 does the source give for B28 here?
Answer: The EC50 was 1.84 ng/mL.

Question: For B29, which EC50 is on record?
Answer: Its EC50 is 1.58 ng/mL.

Question: How did the EC50 turn out when B30 was run?
Answer: The EC50 was 1.15 ng/mL.

Question: How did the EC50 turn out when B31 was run?
Answer: Its EC50 is 2.05 ng/mL.

— patent US20250145723A1 (MINGHUI PHARMACEUTICAL HANGZHOU, published 2025)
